The target of series [1] is PABPC1 RRM2 (human, UniProt P11940 100-190). Kind of series: ITC.
Series [2] has as its target PABPC1 RRM3 (human, UniProt P11940 191-289). Description: ITC. In general terms: ITC needs no label: the signal is the heat of the interaction.
The target in series [3] is PABPC1 RRM2/3 (human, UniProt P11940 100-289). Description: ITC.
Series [4] has as its target PABPC1 RRM1 (human, UniProt P11940 1-99). Kind of series: ITC.
Series [5] deals with PABPC1 RRM4 (human, UniProt P11940 290-371). Kind of series: ITC.
In series [6] the target is PABPC1 (full length) (human, UniProt P11940 1-636). Kind of series: SPR. In general terms: In SPR one partner is held on a chip, and binding of the other changes the refractive index at the surface.
For series [7], the target named is PABPC1 RRM1/2/3/4 (human, UniProt P11940 1-370). Description: SPR.
Sequence of PABPC1 RRM1/2/3/4 (P11940 1-370): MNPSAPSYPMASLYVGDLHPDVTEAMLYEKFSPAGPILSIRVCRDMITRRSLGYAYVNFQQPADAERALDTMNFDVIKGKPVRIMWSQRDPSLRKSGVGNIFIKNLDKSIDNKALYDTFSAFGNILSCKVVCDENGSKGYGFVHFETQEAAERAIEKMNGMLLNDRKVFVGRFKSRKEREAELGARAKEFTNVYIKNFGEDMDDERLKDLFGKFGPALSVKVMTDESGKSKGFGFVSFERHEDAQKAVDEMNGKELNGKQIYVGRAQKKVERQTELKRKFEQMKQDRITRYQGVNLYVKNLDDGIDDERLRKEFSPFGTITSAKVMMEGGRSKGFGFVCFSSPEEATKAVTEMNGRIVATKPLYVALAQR

Sequence of PABPC1 RRM2 (P11940 100-190): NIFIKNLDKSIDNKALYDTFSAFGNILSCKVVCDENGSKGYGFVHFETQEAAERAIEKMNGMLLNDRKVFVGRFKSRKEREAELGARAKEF
Sequence of PABPC1 RRM2/3 (P11940 100-289): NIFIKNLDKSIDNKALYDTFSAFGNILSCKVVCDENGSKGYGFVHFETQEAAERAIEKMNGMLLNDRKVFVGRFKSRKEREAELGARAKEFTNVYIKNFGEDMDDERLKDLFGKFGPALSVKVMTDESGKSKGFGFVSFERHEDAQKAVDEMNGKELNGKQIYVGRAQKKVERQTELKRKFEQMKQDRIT
Sequence of PABPC1 (full length) (P11940 whole entry): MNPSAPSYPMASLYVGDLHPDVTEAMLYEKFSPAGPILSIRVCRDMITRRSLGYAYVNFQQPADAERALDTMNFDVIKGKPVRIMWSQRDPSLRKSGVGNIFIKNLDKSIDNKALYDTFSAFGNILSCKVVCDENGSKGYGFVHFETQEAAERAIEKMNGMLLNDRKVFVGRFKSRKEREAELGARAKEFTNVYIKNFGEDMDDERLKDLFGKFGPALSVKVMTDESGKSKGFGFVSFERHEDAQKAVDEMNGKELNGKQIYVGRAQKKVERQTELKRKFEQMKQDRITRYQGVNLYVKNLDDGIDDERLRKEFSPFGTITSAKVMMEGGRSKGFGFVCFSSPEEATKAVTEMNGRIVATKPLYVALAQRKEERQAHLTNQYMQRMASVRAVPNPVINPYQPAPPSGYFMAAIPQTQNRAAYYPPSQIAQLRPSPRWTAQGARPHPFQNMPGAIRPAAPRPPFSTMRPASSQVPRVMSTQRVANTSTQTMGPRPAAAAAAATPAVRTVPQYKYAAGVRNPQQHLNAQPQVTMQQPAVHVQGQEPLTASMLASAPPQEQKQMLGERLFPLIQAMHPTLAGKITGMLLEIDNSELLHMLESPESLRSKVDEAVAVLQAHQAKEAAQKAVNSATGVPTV
Sequence of PABPC1 RRM4 (P11940 290-371): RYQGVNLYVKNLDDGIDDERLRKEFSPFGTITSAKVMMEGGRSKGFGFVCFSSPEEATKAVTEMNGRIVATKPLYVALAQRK
Sequence of PABPC1 RRM3 (P11940 191-289): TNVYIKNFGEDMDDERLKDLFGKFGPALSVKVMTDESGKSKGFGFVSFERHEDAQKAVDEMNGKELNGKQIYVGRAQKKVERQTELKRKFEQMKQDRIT
Sequence of PABPC1 RRM1 (P11940 1-99): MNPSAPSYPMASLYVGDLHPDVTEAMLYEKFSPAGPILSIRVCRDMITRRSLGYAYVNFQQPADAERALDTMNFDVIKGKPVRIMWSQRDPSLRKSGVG

B1: A7 (ssRNA)
RNA: AAAAAAA
Usually Kd stands for the concentration at which binding is half-saturated. High values mean lower affinity, low ones higher affinity. B1: the values for the Kd in series [1], in series [2] and in series [3] were 200 ± 40 µM, 4.7 ± 0.3 µM and 0.71 ± 0.1 µM, respectively. Besides, the binding result in series [4] and in series [5] was “no binding” each time.

B2: A24 (ssRNA)
RNA: AAAAAAAAAAAAAAAAAAAAAAAA
For B2, the binding result in series [6] and in series [7] was “binds” each time.

B3: A12 (ssRNA)
RNA: AAAAAAAAAAAA
For B3, the Kd worked out at 70 ± 3 µM in series [1] and 0.0013 ± 0.0006 µM in series [3].

The values above are taken from article PMC9019252.
